Substrate: CC(=O)Oc1ccc([N+](=O)[O-])cc1
Test: purified protein
Type: biochemical, Halalkalibacterium halodurans
Conditions: 30 mM Tris-HCl pH 8.0 (general assay), temperature for the Km not given

B1: AXE-HAS10 (Halalkalibacterium halodurans C-125) (protein)
chain: MPLIDMPLTELKEYMGRNPKPDDFTEYWDRALQEMRKVNPNVELIPSDFQTTYAECFHLYFTGVRGARIHAKYVRPRHTSGTHPAVIHFHGYTMNAGEWTGLLHYAALGYSVLAMDVRGQGGLSEDTGGVKGNTHSGHIIRGLDDNADQLLFRHVFLDTAQLANIVMNLPEVDEERVAVTGWSQGGALAIACAALEPKIKKVAPVYPFLSDYQRVWEMDLAEKAYDELQTYFRRFDPQHRREAEIFTKLGYIDIQHLAPLVKGEVLLAVGLMDTVCPPSTQFAMYNKLTTTKSIELYPDFAHEDLPGHRDRIFQFLSDL
notes: full-length ORF, 319 residues, no signal peptide; pET-28a(+) His6 fusion, 33 extra residues N-terminal and 9 C-terminal; E. coli BL21 (DE3) Rosetta; EC 3.1.1.72, CE7
Protein B1 has a Km of 96 µM, a kcat of 63.1 s⁻¹ and a kcat/Km of 657000 M⁻¹ s⁻¹.

From paper PMC9606172, “Recombinant acetylxylan esterase of Halalkalibacterium halodurans NAH-Egypt: molecular and biochemical study” (AMB Express, 2022)
